Read-outs that look alike come from different tables or passages of the source.
Columns and labels:
[1] = biological target: T1, human IL-18BP (human, UniProt O95998 31-194); assay: BLI, apparent KD
T1 construct: UniProt printed as 095998; also called hIL-18BP
T1 sequence: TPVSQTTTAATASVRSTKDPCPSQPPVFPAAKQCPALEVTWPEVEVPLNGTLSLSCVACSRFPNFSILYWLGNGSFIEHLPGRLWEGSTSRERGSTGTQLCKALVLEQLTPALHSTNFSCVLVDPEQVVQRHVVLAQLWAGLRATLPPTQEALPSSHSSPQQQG

[2] = biological target: T1, human IL-18BP; assay: BLI, apparent KD; remark: listed apart in the source

| Binder | Kd [1] [nM] | Kd [2] [nM] |
| --- | --- | --- |
| SA301a HC-G55A (antibody, name in Kabat numbering, V domains shown, IgG1 kappa) VH: QVQLQESGPGLVKPSQTLSLTCTVSGYSITSDYNSHWIRQPPGKGLEWIGYIHYSASTNYNPSLKSRVTISRDTSKNQFSLKLSSVTAADTAVYYCARNYGSIYVNYFDYWGQGTLVTVSS VL: EIVLTQSPATLSLSPGERATLSCSASSSVSYMYWYQQKPGQAPRPLIYRTSNLASGIPARFSGSGSGTDFTLTISSLEPEDFAVYYCQQYHSYPTFGGGTKVEIK | 0.75 |  |
| SA301a HC-G55D (antibody, name in Kabat numbering, V domains shown, IgG1 kappa) VH: QVQLQESGPGLVKPSQTLSLTCTVSGYSITSDYNSHWIRQPPGKGLEWIGYIHYSDSTNYNPSLKSRVTISRDTSKNQFSLKLSSVTAADTAVYYCARNYGSIYVNYFDYWGQGTLVTVSS VL: EIVLTQSPATLSLSPGERATLSCSASSSVSYMYWYQQKPGQAPRPLIYRTSNLASGIPARFSGSGSGTDFTLTISSLEPEDFAVYYCQQYHSYPTFGGGTKVEIK | 1.37 |  |
| SA301a HC-G55E (antibody, name in Kabat numbering, V domains shown, IgG1 kappa) VH: QVQLQESGPGLVKPSQTLSLTCTVSGYSITSDYNSHWIRQPPGKGLEWIGYIHYSESTNYNPSLKSRVTISRDTSKNQFSLKLSSVTAADTAVYYCARNYGSIYVNYFDYWGQGTLVTVSS VL: EIVLTQSPATLSLSPGERATLSCSASSSVSYMYWYQQKPGQAPRPLIYRTSNLASGIPARFSGSGSGTDFTLTISSLEPEDFAVYYCQQYHSYPTFGGGTKVEIK | 0.4 |  |
| SA301a HC-G55F (antibody, name in Kabat numbering, V domains shown, IgG1 kappa) VH: QVQLQESGPGLVKPSQTLSLTCTVSGYSITSDYNSHWIRQPPGKGLEWIGYIHYSFSTNYNPSLKSRVTISRDTSKNQFSLKLSSVTAADTAVYYCARNYGSIYVNYFDYWGQGTLVTVSS VL: EIVLTQSPATLSLSPGERATLSCSASSSVSYMYWYQQKPGQAPRPLIYRTSNLASGIPARFSGSGSGTDFTLTISSLEPEDFAVYYCQQYHSYPTFGGGTKVEIK | 1.17 |  |
| SA301a HC-G55H (antibody, name in Kabat numbering, V domains shown, IgG1 kappa) VH: QVQLQESGPGLVKPSQTLSLTCTVSGYSITSDYNSHWIRQPPGKGLEWIGYIHYSHSTNYNPSLKSRVTISRDTSKNQFSLKLSSVTAADTAVYYCARNYGSIYVNYFDYWGQGTLVTVSS VL: EIVLTQSPATLSLSPGERATLSCSASSSVSYMYWYQQKPGQAPRPLIYRTSNLASGIPARFSGSGSGTDFTLTISSLEPEDFAVYYCQQYHSYPTFGGGTKVEIK | 1.31 |  |
| SA301a LC-P95Y (antibody, V domains shown) VH: QVQLQESGPGLVKPSQTLSLTCTVSGYSITSDYNSHWIRQPPGKGLEWIGYIHYSGSTNYNPSLKSRVTISRDTSKNQFSLKLSSVTAADTAVYYCARNYGSIYVNYFDYWGQGTLVTVSS VL: EIVLTQSPATLSLSPGERATLSCSASSSVSYMYWYQQKPGQAPRPLIYRTSNLASGIPARFSGSGSGTDFTLTISSLEPEDFAVYYCQQYHSYYTFGGGTKVEIK |  | 0.82 |
| SA301a LC-P95F (antibody, V domains shown) VH: QVQLQESGPGLVKPSQTLSLTCTVSGYSITSDYNSHWIRQPPGKGLEWIGYIHYSGSTNYNPSLKSRVTISRDTSKNQFSLKLSSVTAADTAVYYCARNYGSIYVNYFDYWGQGTLVTVSS VL: EIVLTQSPATLSLSPGERATLSCSASSSVSYMYWYQQKPGQAPRPLIYRTSNLASGIPARFSGSGSGTDFTLTISSLEPEDFAVYYCQQYHSYFTFGGGTKVEIK |  | 2.01 |
| SA301a LC-P95L (antibody, V domains shown) VH: QVQLQESGPGLVKPSQTLSLTCTVSGYSITSDYNSHWIRQPPGKGLEWIGYIHYSGSTNYNPSLKSRVTISRDTSKNQFSLKLSSVTAADTAVYYCARNYGSIYVNYFDYWGQGTLVTVSS VL: EIVLTQSPATLSLSPGERATLSCSASSSVSYMYWYQQKPGQAPRPLIYRTSNLASGIPARFSGSGSGTDFTLTISSLEPEDFAVYYCQQYHSYLTFGGGTKVEIK |  | 2.18 |
| SA301a LC-P95N (antibody, V domains shown) VH: QVQLQESGPGLVKPSQTLSLTCTVSGYSITSDYNSHWIRQPPGKGLEWIGYIHYSGSTNYNPSLKSRVTISRDTSKNQFSLKLSSVTAADTAVYYCARNYGSIYVNYFDYWGQGTLVTVSS VL: EIVLTQSPATLSLSPGERATLSCSASSSVSYMYWYQQKPGQAPRPLIYRTSNLASGIPARFSGSGSGTDFTLTISSLEPEDFAVYYCQQYHSYNTFGGGTKVEIK |  | 0.32 |
| SA301a LC-P95A (antibody, V domains shown) VH: QVQLQESGPGLVKPSQTLSLTCTVSGYSITSDYNSHWIRQPPGKGLEWIGYIHYSGSTNYNPSLKSRVTISRDTSKNQFSLKLSSVTAADTAVYYCARNYGSIYVNYFDYWGQGTLVTVSS VL: EIVLTQSPATLSLSPGERATLSCSASSSVSYMYWYQQKPGQAPRPLIYRTSNLASGIPARFSGSGSGTDFTLTISSLEPEDFAVYYCQQYHSYATFGGGTKVEIK |  | 0.26 |
| SA301a LC-P95E (antibody, V domains shown) VH: QVQLQESGPGLVKPSQTLSLTCTVSGYSITSDYNSHWIRQPPGKGLEWIGYIHYSGSTNYNPSLKSRVTISRDTSKNQFSLKLSSVTAADTAVYYCARNYGSIYVNYFDYWGQGTLVTVSS VL: EIVLTQSPATLSLSPGERATLSCSASSSVSYMYWYQQKPGQAPRPLIYRTSNLASGIPARFSGSGSGTDFTLTISSLEPEDFAVYYCQQYHSYETFGGGTKVEIK |  | 0.44 |
| SA301a LC-P95K (antibody, V domains shown) VH: QVQLQESGPGLVKPSQTLSLTCTVSGYSITSDYNSHWIRQPPGKGLEWIGYIHYSGSTNYNPSLKSRVTISRDTSKNQFSLKLSSVTAADTAVYYCARNYGSIYVNYFDYWGQGTLVTVSS VL: EIVLTQSPATLSLSPGERATLSCSASSSVSYMYWYQQKPGQAPRPLIYRTSNLASGIPARFSGSGSGTDFTLTISSLEPEDFAVYYCQQYHSYKTFGGGTKVEIK |  | 0.22 |
| SA301a LC-T96I (antibody, V domains shown) VH: QVQLQESGPGLVKPSQTLSLTCTVSGYSITSDYNSHWIRQPPGKGLEWIGYIHYSGSTNYNPSLKSRVTISRDTSKNQFSLKLSSVTAADTAVYYCARNYGSIYVNYFDYWGQGTLVTVSS VL: EIVLTQSPATLSLSPGERATLSCSASSSVSYMYWYQQKPGQAPRPLIYRTSNLASGIPARFSGSGSGTDFTLTISSLEPEDFAVYYCQQYHSYPIFGGGTKVEIK |  | 0.12 |
| SA301a LC-T96Y (antibody, V domains shown) VH: QVQLQESGPGLVKPSQTLSLTCTVSGYSITSDYNSHWIRQPPGKGLEWIGYIHYSGSTNYNPSLKSRVTISRDTSKNQFSLKLSSVTAADTAVYYCARNYGSIYVNYFDYWGQGTLVTVSS VL: EIVLTQSPATLSLSPGERATLSCSASSSVSYMYWYQQKPGQAPRPLIYRTSNLASGIPARFSGSGSGTDFTLTISSLEPEDFAVYYCQQYHSYPYFGGGTKVEIK |  | 0.22 |
| SA301a LC-T96D (antibody, V domains shown) VH: QVQLQESGPGLVKPSQTLSLTCTVSGYSITSDYNSHWIRQPPGKGLEWIGYIHYSGSTNYNPSLKSRVTISRDTSKNQFSLKLSSVTAADTAVYYCARNYGSIYVNYFDYWGQGTLVTVSS VL: EIVLTQSPATLSLSPGERATLSCSASSSVSYMYWYQQKPGQAPRPLIYRTSNLASGIPARFSGSGSGTDFTLTISSLEPEDFAVYYCQQYHSYPDFGGGTKVEIK |  | 0.13 |
| SA301a LC-T96A (antibody, V domains shown) VH: QVQLQESGPGLVKPSQTLSLTCTVSGYSITSDYNSHWIRQPPGKGLEWIGYIHYSGSTNYNPSLKSRVTISRDTSKNQFSLKLSSVTAADTAVYYCARNYGSIYVNYFDYWGQGTLVTVSS VL: EIVLTQSPATLSLSPGERATLSCSASSSVSYMYWYQQKPGQAPRPLIYRTSNLASGIPARFSGSGSGTDFTLTISSLEPEDFAVYYCQQYHSYPAFGGGTKVEIK |  | 0.17 |
| SA301a LC-T96E (antibody, V domains shown) VH: QVQLQESGPGLVKPSQTLSLTCTVSGYSITSDYNSHWIRQPPGKGLEWIGYIHYSGSTNYNPSLKSRVTISRDTSKNQFSLKLSSVTAADTAVYYCARNYGSIYVNYFDYWGQGTLVTVSS VL: EIVLTQSPATLSLSPGERATLSCSASSSVSYMYWYQQKPGQAPRPLIYRTSNLASGIPARFSGSGSGTDFTLTISSLEPEDFAVYYCQQYHSYPEFGGGTKVEIK |  | 0.31 |
| SA301a LC-T96M (antibody, V domains shown) VH: QVQLQESGPGLVKPSQTLSLTCTVSGYSITSDYNSHWIRQPPGKGLEWIGYIHYSGSTNYNPSLKSRVTISRDTSKNQFSLKLSSVTAADTAVYYCARNYGSIYVNYFDYWGQGTLVTVSS VL: EIVLTQSPATLSLSPGERATLSCSASSSVSYMYWYQQKPGQAPRPLIYRTSNLASGIPARFSGSGSGTDFTLTISSLEPEDFAVYYCQQYHSYPMFGGGTKVEIK |  | 0.19 |
| SA301a LC-T96K (antibody, V domains shown) VH: QVQLQESGPGLVKPSQTLSLTCTVSGYSITSDYNSHWIRQPPGKGLEWIGYIHYSGSTNYNPSLKSRVTISRDTSKNQFSLKLSSVTAADTAVYYCARNYGSIYVNYFDYWGQGTLVTVSS VL: EIVLTQSPATLSLSPGERATLSCSASSSVSYMYWYQQKPGQAPRPLIYRTSNLASGIPARFSGSGSGTDFTLTISSLEPEDFAVYYCQQYHSYPKFGGGTKVEIK |  | 0.05 |
| SA301a LC-T96V (antibody, V domains shown) VH: QVQLQESGPGLVKPSQTLSLTCTVSGYSITSDYNSHWIRQPPGKGLEWIGYIHYSGSTNYNPSLKSRVTISRDTSKNQFSLKLSSVTAADTAVYYCARNYGSIYVNYFDYWGQGTLVTVSS VL: EIVLTQSPATLSLSPGERATLSCSASSSVSYMYWYQQKPGQAPRPLIYRTSNLASGIPARFSGSGSGTDFTLTISSLEPEDFAVYYCQQYHSYPVFGGGTKVEIK |  | 0.21 |
| SA301a LC-T96P (antibody, V domains shown) VH: QVQLQESGPGLVKPSQTLSLTCTVSGYSITSDYNSHWIRQPPGKGLEWIGYIHYSGSTNYNPSLKSRVTISRDTSKNQFSLKLSSVTAADTAVYYCARNYGSIYVNYFDYWGQGTLVTVSS VL: EIVLTQSPATLSLSPGERATLSCSASSSVSYMYWYQQKPGQAPRPLIYRTSNLASGIPARFSGSGSGTDFTLTISSLEPEDFAVYYCQQYHSYPPFGGGTKVEIK |  | 0.26 |
